The target of assay [1] is T1, C-C chemokine receptor 1 (C-C CKR-1) (human, UniProt P32246 1-355).
T1 construct: Transiently expressed from pRK5 in human embryonic kidney 293 cells; also called JOSH1; cloned C-C CKR-1
T1 sequence: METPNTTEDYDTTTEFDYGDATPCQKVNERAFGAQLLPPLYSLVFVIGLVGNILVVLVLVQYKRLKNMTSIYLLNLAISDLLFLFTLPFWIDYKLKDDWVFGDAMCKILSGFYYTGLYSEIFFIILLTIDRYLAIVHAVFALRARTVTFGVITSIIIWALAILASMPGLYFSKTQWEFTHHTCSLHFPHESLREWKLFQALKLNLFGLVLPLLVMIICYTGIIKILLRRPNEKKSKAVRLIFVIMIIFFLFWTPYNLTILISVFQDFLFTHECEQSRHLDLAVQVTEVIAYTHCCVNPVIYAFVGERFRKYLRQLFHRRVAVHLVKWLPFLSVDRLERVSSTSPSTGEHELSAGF
Nature of the assay: heterologous displacement of 125I-HuMIP-1α on 293 cells expressing C-C CKR-1, Scatchard analysis. For orientation: In a radioligand displacement assay an active substance lowers the binding of a labelled ligand.

Assay [2] has as its target T1, C-C chemokine receptor 1 (C-C CKR-1). Kind of assay: heterologous displacement of 125I-RANTES by unlabeled HuMIP-1α on 293 cells expressing C-C CKR-1, Scatchard analysis.
Assay [3] shares this target. Kind of assay: 125I-HuMIP-1α displaced by unlabeled HuMIP-1α on 293 cells expressing C-C CKR-1, 4 °C, Scatchard analysis.

B1: murine MIP-1α (ligand, UniProt P10855 24-92, looked up)
chain: APYGADTPTACCFSYSRKIPRQFIVDYFETSSLCSQPGVIFLTKRNRQICADSKETWVQEYITDLELNA
By Kd is commonly meant the concentration at which binding is half-saturated. Lower therefore signals a tighter complex. As for B1, the Kd in assay [1] came out at 4.2 nM.

B2: RANTES (Regulated on Activation, Normal T Expressed and Secreted) (ligand, UniProt P13501 24-91, looked up)
chain: SPYSSDTTPCCFAYIARPLPRAHIKEYFYTSGKCSNPAVVFVTRKNRQVCANPEKKWVREYINSLEMS
modifications: ends and bridges not checked; also: 125I-labeled where used as tracer
Regarding B2, in assay [1], the Kd was 468 nM.

B3: human MIP-1α (HuMIP-1α) (ligand, UniProt P10147 24-92, looked up)
chain: SLAADTPTACCFSYTSRQIPQNFIADYFETSSQCSKPGVIFLTKRSRQVCADPSEEWVQKYVSDLELSA
modifications: ends and bridges not checked; also: 125I-iodinated (chloroglycoluril) where used as tracer
notes: also called HuMIP-1a
In the case of B3, the values for the Kd in assay [2] and in assay [3] were 7.6 nM and 5.1 nM, respectively.

B4: human MIP-1β (HuMIP-1β) (ligand, UniProt P13236 24-92, looked up)
chain: APMGSDPPTACCFSYTARKLPRNFVVDYYETSSLCSQPAVVFQTKRSKQVCADPSESWVQEYVYDLELN
notes: also called HuMIP-1b; MIP-lb
Molecule B4 showed a Kd in assay [1] of 232 nM. This lies in the sub-micromolar range.

These data come from EP0669979B1 (GENENTECH, INC., dated 2005).
